According to patent publication US20180155451A1 (published 2018):

T1: FcγRIIb extracellular domain with C-terminal His tag (human, UniProt P31994 43-217)
T1 construct: extracellular domain; expressed in FreeStyle293 cells; analyte in the Biacore assay; also called FcgRIIb; 2b; not shown: His tag at the C terminus
T1 sequence (looked up): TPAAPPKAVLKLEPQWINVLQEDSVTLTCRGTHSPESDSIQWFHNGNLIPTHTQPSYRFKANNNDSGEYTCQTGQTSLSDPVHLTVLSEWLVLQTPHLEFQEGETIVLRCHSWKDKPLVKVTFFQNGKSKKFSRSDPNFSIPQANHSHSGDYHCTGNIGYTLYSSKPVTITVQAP

B1: GpH7-A5/GpH7-B3 variant K334_10E/GpL16-k0 (antibody, human IgG1, kappa)
heavy 1: not shown
heavy 2: not shown
light: DIVMTQSPLSLPVTPGEPASISCQASESLVHSNRNTYLHWYLQKPGQSPQLLIYKVSNRFSGVPDRFSGSGSGTDFTLKISRVEAEDVGVYYCSQNTHVPPTFGQGTKVEIERTVAAPSVFIFPPSDEQLKSGTASVVCLLNNFYPREAKVQWKVDNALQSGNSQESVTEQDSKDSTYSLSSTLTLSKADYEKHKVYACEVTHQGLSSPVTKSFNRGEC
notes: heterodimerized; mutation in the B3 H chain only; also called He Ab K334_10E
B2: GpH7-B3 variant K334_01G/GpL16-k0 (antibody, human IgG1, kappa)
heavy: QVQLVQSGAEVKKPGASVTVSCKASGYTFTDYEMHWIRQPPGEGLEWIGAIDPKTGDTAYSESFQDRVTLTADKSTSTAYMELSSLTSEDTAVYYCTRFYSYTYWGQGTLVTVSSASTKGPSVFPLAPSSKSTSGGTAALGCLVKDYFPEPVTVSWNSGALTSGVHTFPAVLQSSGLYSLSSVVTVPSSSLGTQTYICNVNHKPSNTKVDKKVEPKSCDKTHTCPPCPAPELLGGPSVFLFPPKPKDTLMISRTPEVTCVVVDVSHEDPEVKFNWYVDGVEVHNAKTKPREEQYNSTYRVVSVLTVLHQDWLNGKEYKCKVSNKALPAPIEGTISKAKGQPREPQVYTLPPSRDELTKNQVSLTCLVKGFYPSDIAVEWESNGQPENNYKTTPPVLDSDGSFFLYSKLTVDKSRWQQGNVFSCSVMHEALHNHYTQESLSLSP
light: B1 light
notes: homodimerized IgG1, mutation in both H chains; also called Ho Ab
B3: GpH7-A5/GpH7-B3 variant Y296_20W/GpL16-k0 (antibody, human IgG1, kappa)
heavy 1: not shown
heavy 2: not shown
light: B1 light
notes: heterodimerized; mutation in the B3 H chain only; also called He Ab Y296_20W
B4: GpH7-B3 variant I332_14T/GpL16-k0 (antibody, human IgG1, kappa)
heavy: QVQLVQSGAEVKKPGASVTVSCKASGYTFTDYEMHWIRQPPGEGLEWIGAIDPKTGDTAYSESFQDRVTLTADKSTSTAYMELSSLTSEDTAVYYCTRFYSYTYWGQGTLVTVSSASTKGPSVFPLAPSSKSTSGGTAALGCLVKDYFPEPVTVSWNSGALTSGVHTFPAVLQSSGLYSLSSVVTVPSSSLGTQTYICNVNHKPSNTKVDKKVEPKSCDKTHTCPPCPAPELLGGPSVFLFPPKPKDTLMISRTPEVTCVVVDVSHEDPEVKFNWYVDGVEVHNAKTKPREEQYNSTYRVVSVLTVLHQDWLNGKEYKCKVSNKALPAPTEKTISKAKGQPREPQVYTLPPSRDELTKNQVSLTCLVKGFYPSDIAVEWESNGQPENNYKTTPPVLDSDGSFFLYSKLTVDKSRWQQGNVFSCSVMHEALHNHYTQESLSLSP
light: B1 light
notes: as for B2
B5: GpH7-A5/GpH7-B3 variant L328_02A/GpL16-k0 (antibody, human IgG1, kappa)
heavy 1: not shown
heavy 2: not shown
light: B1 light
notes: heterodimerized; mutation in the B3 H chain only; also called He Ab L328_02A
B6: GpH7-B3 variant I336_02A/GpL16-k0 (antibody, human IgG1, kappa)
heavy: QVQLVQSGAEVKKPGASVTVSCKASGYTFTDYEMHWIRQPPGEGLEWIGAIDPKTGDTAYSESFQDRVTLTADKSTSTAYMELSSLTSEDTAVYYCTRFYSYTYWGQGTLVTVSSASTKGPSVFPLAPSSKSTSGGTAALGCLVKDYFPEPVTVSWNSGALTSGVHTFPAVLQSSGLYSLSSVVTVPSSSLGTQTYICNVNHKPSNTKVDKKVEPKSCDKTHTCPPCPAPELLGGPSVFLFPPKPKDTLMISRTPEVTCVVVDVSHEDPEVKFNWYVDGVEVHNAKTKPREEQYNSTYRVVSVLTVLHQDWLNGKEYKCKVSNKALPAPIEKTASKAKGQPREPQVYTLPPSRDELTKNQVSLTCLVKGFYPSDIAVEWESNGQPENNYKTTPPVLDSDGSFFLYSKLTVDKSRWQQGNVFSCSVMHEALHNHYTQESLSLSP
light: B1 light
notes: as for B2
B7: GpH7-B3 variant I336_09D/GpL16-k0 (antibody, human IgG1, kappa)
heavy: not shown
light: B1 light
notes: as for B2
B8: GpH7-B3 variant E333_16H/GpL16-k0 (antibody, human IgG1, kappa)
heavy: not shown
light: B1 light
notes: as for B2
B9: GpH7-B3 variant I336_06M/GpL16-k0 (antibody, human IgG1, kappa)
heavy: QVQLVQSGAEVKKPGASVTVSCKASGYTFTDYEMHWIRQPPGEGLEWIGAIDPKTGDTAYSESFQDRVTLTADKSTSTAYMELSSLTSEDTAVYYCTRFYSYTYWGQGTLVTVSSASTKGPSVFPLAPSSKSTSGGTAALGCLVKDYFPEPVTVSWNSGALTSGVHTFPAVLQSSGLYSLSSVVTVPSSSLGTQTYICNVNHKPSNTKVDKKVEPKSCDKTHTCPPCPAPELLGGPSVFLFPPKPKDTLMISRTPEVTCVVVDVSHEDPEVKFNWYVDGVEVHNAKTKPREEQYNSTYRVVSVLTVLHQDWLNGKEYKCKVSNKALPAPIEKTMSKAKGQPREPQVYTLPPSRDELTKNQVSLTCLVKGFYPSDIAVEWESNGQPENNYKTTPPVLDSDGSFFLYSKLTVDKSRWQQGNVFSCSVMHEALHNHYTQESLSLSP
light: B1 light
notes: as for B2
B10: GpH7-A5/GpH7-B3 variant S337_16H/GpL16-k0 (antibody, human IgG1, kappa)
heavy 1: not shown
heavy 2: not shown
light: B1 light
notes: heterodimerized; mutation in the B3 H chain only; also called He Ab S337_16H
B11: GpH7-B3 variant K326_14T/GpL16-k0 (antibody, human IgG1, kappa)
heavy: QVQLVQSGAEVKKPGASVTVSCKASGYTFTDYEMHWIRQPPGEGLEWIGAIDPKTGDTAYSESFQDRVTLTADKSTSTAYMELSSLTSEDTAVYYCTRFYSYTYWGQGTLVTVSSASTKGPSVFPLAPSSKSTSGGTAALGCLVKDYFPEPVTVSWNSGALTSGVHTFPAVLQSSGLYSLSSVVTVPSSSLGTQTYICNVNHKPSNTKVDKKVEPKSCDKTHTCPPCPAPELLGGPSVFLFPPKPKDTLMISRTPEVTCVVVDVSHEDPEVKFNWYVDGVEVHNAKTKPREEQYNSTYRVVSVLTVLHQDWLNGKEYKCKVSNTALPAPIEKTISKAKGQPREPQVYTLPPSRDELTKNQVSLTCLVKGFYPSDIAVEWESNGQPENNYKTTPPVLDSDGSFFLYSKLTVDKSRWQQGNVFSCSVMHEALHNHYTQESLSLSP
light: B1 light
notes: as for B2
B12: GpH7-A5/GpH7-B3 variant S267_19Q/GpL16-k0 (antibody, human IgG1, kappa)
heavy 1: not shown
heavy 2: not shown
light: B1 light
notes: heterodimerized; mutation in the B3 H chain only; also called He Ab S267_19Q
B13: GpH7-A5/GpH7-B3 variant P331_15Y/GpL16-k0 (antibody, human IgG1, kappa)
heavy 1: not shown
heavy 2: not shown
light: B1 light
notes: heterodimerized; mutation in the B3 H chain only; also called He Ab P331_15Y
B14: GpH7-A5/GpH7-B3 variant P238_09D/GpL16-k0 (antibody, human IgG1, kappa)
heavy 1: not shown
heavy 2: not shown
light: B1 light
notes: heterodimerized; mutation in the B3 H chain only; also called He Ab P238_09D
B15: GpH7-B3 variant I336_10E/GpL16-k0 (antibody, human IgG1, kappa)
heavy: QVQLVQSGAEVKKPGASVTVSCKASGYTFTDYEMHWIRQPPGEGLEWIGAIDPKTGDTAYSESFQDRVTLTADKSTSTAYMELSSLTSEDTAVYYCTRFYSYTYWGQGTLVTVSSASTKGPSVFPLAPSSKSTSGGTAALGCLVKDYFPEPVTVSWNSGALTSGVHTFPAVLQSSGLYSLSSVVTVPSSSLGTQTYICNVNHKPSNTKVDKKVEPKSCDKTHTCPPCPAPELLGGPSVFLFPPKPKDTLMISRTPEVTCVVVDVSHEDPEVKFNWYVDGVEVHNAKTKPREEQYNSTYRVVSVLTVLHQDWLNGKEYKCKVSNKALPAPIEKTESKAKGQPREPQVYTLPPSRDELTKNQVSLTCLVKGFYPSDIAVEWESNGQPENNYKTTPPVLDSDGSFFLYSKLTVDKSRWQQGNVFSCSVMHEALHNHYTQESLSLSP
light: B1 light
notes: as for B2
B16: GpH7-B3 variant A330_04F/GpL16-k0 (antibody, human IgG1, kappa)
heavy: not shown
light: B1 light
notes: as for B2
B17: GpH7-A5/GpH7-B3 variant S239_10E/GpL16-k0 (antibody, human IgG1, kappa)
heavy 1: not shown
heavy 2: not shown
light: B1 light
notes: heterodimerized; mutation in the B3 H chain only; also called He Ab S239_10E
B18: GpH7-B3 variant K326_10E/GpL16-k0 (antibody, human IgG1, kappa)
heavy: not shown
light: B1 light
notes: as for B2
B19: GpH7-B3 variant I336_14T/GpL16-k0 (antibody, human IgG1, kappa)
heavy: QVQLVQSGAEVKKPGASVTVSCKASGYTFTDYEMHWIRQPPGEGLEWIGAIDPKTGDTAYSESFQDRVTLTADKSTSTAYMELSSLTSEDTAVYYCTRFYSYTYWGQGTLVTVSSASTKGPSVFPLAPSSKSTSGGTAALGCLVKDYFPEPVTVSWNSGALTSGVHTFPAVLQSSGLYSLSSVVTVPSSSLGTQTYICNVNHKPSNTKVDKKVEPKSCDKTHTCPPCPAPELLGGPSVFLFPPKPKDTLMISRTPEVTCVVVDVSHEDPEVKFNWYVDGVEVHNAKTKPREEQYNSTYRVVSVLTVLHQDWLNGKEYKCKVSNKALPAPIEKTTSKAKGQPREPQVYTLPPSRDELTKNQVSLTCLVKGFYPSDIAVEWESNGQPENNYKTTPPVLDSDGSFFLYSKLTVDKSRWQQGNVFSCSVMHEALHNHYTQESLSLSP
light: B1 light
notes: as for B2
B20: GpH7-A5/GpH7-B3 variant P331_20W/GpL16-k0 (antibody, human IgG1, kappa)
heavy 1: not shown
heavy 2: not shown
light: B1 light
notes: heterodimerized; mutation in the B3 H chain only; also called He Ab P331_20W
B21: GpH7-B3 variant H268_13S/GpL16-k0 (antibody, human IgG1, kappa)
heavy: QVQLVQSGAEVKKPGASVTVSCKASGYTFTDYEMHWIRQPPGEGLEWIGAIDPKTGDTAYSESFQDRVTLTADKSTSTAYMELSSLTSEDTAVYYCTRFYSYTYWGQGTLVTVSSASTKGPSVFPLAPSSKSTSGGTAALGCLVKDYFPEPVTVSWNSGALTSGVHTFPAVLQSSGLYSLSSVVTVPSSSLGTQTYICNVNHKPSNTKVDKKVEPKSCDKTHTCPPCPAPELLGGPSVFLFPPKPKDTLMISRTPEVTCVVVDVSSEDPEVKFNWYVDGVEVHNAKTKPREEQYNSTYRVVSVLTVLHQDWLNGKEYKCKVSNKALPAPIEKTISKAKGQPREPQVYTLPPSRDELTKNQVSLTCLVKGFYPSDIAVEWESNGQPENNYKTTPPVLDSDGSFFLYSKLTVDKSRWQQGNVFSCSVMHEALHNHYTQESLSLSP
light: B1 light
notes: as for B2
B22: GpH7-A5/GpH7-B3 variant T335_07I/GpL16-k0 (antibody, human IgG1, kappa)
heavy 1: not shown
heavy 2: not shown
light: B1 light
notes: heterodimerized; mutation in the B3 H chain only; also called He Ab T335_07I
B23: GpH7-B3 variant I332_02A/GpL16-k0 (antibody, human IgG1, kappa)
heavy: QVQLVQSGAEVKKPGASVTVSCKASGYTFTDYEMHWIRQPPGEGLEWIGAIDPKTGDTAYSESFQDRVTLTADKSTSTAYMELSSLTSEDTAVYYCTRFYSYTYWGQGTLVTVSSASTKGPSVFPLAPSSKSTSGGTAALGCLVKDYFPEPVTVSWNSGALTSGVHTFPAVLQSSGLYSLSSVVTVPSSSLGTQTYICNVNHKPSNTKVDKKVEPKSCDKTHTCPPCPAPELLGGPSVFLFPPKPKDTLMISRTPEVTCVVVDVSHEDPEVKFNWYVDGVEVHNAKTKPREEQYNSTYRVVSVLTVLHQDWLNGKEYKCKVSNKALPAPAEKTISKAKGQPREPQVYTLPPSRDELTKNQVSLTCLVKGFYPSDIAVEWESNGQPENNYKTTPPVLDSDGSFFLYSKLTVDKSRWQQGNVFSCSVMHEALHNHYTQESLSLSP
light: B1 light
notes: as for B2
B24: GpH7-A5/GpH7-B3 variant T335_15Y/GpL16-k0 (antibody, human IgG1, kappa)
heavy 1: not shown
heavy 2: not shown
light: B1 light
notes: heterodimerized; mutation in the B3 H chain only; also called He Ab T335_15Y
B25: GpH7-B3 variant I332_01G/GpL16-k0 (antibody, human IgG1, kappa)
heavy: not shown
light: B1 light
notes: as for B2
B26: GpH7-A5/GpH7-B3 variant K334_13S/GpL16-k0 (antibody, human IgG1, kappa)
heavy 1: not shown
heavy 2: not shown
light: B1 light
notes: heterodimerized; mutation in the B3 H chain only; also called He Ab K334_13S
B27: GpH7-B3 variant A330_20W/GpL16-k0 (antibody, human IgG1, kappa)
heavy: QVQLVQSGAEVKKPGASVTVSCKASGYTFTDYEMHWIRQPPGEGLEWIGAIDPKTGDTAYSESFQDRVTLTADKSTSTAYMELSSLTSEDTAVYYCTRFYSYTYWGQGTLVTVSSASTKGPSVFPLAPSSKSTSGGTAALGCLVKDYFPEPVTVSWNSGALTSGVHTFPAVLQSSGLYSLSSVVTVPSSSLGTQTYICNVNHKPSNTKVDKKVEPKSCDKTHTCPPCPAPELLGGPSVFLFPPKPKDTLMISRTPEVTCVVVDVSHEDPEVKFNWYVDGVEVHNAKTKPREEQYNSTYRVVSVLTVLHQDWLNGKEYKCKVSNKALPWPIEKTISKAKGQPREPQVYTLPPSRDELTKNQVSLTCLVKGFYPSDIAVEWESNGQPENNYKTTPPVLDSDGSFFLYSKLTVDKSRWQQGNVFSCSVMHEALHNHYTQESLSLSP
light: B1 light
notes: as for B2
B28: GpH7-B3 variant I336_13S/GpL16-k0 (antibody, human IgG1, kappa)
heavy: not shown
light: B1 light
notes: as for B2

Experiments:
[1] = biological target: T1, FcγRIIb extracellular domain with …; experiment: SPR (Biacore), captured antibody, FcγRIIb analyte; binding relative to GpH7-A5/GpH7-B3/GpL16-k0 = 100
[2] = biological target: T2, FcγRIIIa extracellular domain with C-terminal His tag (human, UniProt P08637 17-208); experiment: SPR, relative to GpH7-B3/GpL16-k0
T2 construct: extracellular domain; also called FcgRIIIa; 3a
T2 sequence (P08637 17-208): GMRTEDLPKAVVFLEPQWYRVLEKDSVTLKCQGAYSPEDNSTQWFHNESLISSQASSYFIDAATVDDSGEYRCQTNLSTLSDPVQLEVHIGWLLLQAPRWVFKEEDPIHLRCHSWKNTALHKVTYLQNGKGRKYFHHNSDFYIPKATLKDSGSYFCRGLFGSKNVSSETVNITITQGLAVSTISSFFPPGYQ

| Binder | He/Con_2b [1] | Ho/Con_3a [2] |
| --- | --- | --- |
| B1 | 114 % of control |  |
| B2 |  | 104 % of control (=100) |
| B3 | 103 % of control |  |
| B4 |  | 138 % of control (=100) |
| B5 | 144 % of control |  |
| B6 |  | 104 % of control (=100) |
| B7 |  | 111 % of control (=100) |
| B8 |  | 111 % of control (=100) |
| B9 |  | 107 % of control (=100) |
| B10 | 105 % of control |  |
| B11 |  | 147 % of control (=100) |
| B12 | 218 % of control |  |
| B13 | 114 % of control |  |
| B14 | 221 % of control |  |
| B15 |  | 130 % of control (=100) |
| B16 |  | 174 % of control (=100) |
| B17 | 181 % of control |  |
| B18 |  | 157 % of control (=100) |
| B19 |  | 123 % of control (=100) |
| B20 | 111 % of control |  |
| B21 |  | 130 % of control (=100) |
| B22 | 106 % of control |  |
| B23 |  | 114 % of control (=100) |
| B24 | 108 % of control |  |
| B25 |  | 104 % of control (=100) |
| B26 | 111 % of control |  |
| B27 |  | 118 % of control (=100) |
| B28 |  | 119 % of control (=100) |
